Laboratory results: article PMC7351999, “Structure of the DOCK2−ELMO1 complex provides insights into regulation of the auto-inhibited state” (Nature Communications, 2020)

B1: human DOCK2 (dedicator of cytokinesis 2) (natural protein)
chain: not shown
notes: DOCK2, human; Tag removed with TEV protease; samples for cryo-EM were cross-linked with glutaraldehyde; also called DOCK2^WT; source: High Five insect cells (baculovirus), co-expressed with ELMO1, purified (Strep-Tactin, Resource Q, Superose 6); not shown: double StrepII, C-terminal, cleaved
B2: N-terminal RBD domain of murine ELMO2 (amino acids 1–80) (domain or fragment, UniProt Q8BHL5 1-80, looked up)
chain: MPPPSDIVKVAIEWPGANAQLLEIDQKRPLASIIKEVCDGWSLPNPEYYTLRYADGPQLYVTEQTRNDIKNGTILQLAVS
notes: also called ELMO2^RBD; wild-type ELMO2^RBD; source: E. coli BL21 (DE3) CodonPlus, purified (GSH resin, thrombin cleavage on the resin, Superdex 75); not shown: GST, N-terminal, cleaved

Key:
[1] = molecular target: the molecule itself; assay: SEC; co-expressed and co-purified DOCK2–ELMO1 complex, wild type and dimer mutant; gel filtration buffer 50 mM Tris HCl (pH 8.0), 200 mM NaCl, 2 mM DTT; Superose 6 / Superdex 200 5/150GL
[2] = molecular target: T1, human RHOG (amino acids 1–179) (human, UniProt P84095 1-179); assay: ITC; ELMO2^RBD injected into the cell containing GMPPNP-loaded (activated) RHOG; 20 mM Tris-HCl (pH 7.5), 100 mM NaCl, 1 mM DTT; 25 °C; conditions: both partners purified
T1 construct: RHOG, human, GeneID 391, amino acids 1–179; Loaded with GMPPNP (or GDP) as told for each assay; also called wild-type RHOG; source: E. coli BL21 (DE3) CodonPlus, purified (nickel-nitrilotriacetic acid, thrombin cleavage, Superdex 75)

RHOG D38A mutant = molecular target: T2, RHOG D38A mutant (human, UniProt P84095 1-179, D38A); assay: as above; conditions: both partners purified
T2 construct: RHOG, human, GeneID 391, amino acids 1–179 with D38A; also called RHOG Asp38 to Ala mutant; source: E. coli BL21 (DE3) CodonPlus, purified (nickel-nitrilotriacetic acid, thrombin cleavage, Superdex 75)
T2 sequence (P84095 1-179 D38A): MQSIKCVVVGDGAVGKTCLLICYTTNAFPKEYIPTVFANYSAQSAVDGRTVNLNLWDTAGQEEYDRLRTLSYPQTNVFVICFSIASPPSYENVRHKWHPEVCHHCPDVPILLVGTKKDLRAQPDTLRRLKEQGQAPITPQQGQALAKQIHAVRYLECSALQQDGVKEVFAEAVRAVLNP

T1 sequence (P84095 1-179): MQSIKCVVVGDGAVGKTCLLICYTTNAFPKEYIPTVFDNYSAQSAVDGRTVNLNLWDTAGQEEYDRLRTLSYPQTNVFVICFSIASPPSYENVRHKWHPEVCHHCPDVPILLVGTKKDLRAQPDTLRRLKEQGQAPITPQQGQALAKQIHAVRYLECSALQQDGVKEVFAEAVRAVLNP

Binder	stoichiometry N [1]	Kd [2] [µM]	Kd (RHOG D38A mutant) [µM]
B1	2		
B2		7.8	9
